# T1: RecB subunit of E. coli RecBCD (134 kDa) (E. coli, UniProt P08394 1-1180)
# T1 sequence (looked up): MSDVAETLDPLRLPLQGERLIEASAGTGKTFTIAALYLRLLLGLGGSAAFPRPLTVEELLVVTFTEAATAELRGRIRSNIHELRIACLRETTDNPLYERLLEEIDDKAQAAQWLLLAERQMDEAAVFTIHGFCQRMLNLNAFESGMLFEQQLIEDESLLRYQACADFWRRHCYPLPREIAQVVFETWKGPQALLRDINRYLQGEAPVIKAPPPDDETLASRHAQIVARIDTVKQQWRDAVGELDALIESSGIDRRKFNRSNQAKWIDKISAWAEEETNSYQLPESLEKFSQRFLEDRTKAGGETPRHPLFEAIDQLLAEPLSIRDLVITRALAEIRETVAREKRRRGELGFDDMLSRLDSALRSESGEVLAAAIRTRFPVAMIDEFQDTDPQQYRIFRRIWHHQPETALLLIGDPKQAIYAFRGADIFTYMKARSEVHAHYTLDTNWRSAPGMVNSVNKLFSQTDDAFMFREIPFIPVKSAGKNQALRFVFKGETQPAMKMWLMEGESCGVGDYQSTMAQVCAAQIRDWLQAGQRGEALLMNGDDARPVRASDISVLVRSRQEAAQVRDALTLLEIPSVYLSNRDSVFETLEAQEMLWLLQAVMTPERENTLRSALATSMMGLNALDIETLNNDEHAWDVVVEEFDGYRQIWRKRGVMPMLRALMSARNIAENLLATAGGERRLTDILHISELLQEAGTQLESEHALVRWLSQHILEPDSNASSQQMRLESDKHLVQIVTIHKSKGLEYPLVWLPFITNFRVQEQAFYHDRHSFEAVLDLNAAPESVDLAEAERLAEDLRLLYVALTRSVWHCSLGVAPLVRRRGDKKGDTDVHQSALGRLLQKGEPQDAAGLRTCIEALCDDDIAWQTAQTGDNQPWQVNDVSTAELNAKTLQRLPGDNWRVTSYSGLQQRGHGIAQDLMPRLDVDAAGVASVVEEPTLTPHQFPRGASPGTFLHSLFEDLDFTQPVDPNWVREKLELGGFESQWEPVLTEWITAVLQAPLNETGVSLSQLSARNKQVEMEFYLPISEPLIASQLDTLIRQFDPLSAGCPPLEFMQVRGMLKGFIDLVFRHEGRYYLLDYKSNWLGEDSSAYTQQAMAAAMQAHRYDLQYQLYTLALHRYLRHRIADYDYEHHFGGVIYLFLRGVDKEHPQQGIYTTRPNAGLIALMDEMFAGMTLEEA
# B1: RecC subunit of E. coli RecBCD (natural protein, UniProt P07648 1-1122, looked up)
# chain: MLRVYHSNRLDVLEALMEFIVERERLDDPFEPEMILVQSTGMAQWLQMTLSQKFGIAANIDFPLPASFIWDMFVRVLPEIPKESAFNKQSMSWKLMTLLPQLLEREDFTLLRHYLTDDSDKRKLFQLSSKAADLFDQYLVYRPDWLAQWETGHLVEGLGEAQAWQAPLWKALVEYTHQLGQPRWHRANLYQRFIETLESATTCPPGLPSRVFICGISALPPVYLQALQALGKHIEIHLLFTNPCRYYWGDIKDPAYLAKLLTRQRRHSFEDRELPLFRDSENAGQLFNSDGEQDVGNPLLASWGKLGRDYIYLLSDLESSQELDAFVDVTPDNLLHNIQSDILELENRAVAGVNIEEFSRSDNKRPLDPLDSSITFHVCHSPQREVEVLHDRLLAMLEEDPTLTPRDIIVMVADIDSYSPFIQAVFGSAPADRYLPYAISDRRARQSHPVLEAFISLLSLPDSRFVSEDVLALLDVPVLAARFDITEEGLRYLRQWVNESGIRWGIDDDNVRELELPATGQHTWRFGLTRMLLGYAMESAQGEWQSVLPYDESSGLIAELVGHLASLLMQLNIWRRGLAQERPLEEWLPVCRDMLNAFFLPDAETEAAMTLIEQQWQAIIAEGLGAQYGDAVPLSLLRDELAQRLDQERISQRFLAGPVNICTLMPMRSIPFKVVCLLGMNDGVYPRQLAPLGFDLMSQKPKRGDRSRRDDDRYLFLEALISAQQKLYISYIGRSIQDNSERFPSVLVQELIDYIGQSHYLPGDEALNCDESEARVKAHLTCLHTRMPFDPQNYQPGERQSYAREWLPAASQAGKAHSEFVQPLPFTLPETVPLETLQRFWAHPVRAFFQMRLQVNFRTEDSEIPDTEPFILEGLSRYQINQQLLNALVEQDDAERLFRRFRAAGDLPYGAFGEIFWETQCQEMQQLADRVIACRQPGQSMEIDLACNGVQITGWLPQVQPDGLLRWRPSLLSVAQGMQLWLEHLVYCASGGNGESRLFLRKDGEWRFPPLAAEQALHYLSQLIEGYREGMSAPLLVLPESGGAWLKTCYDAQNDAMLDDDSTLQKARTKFLQAYEGNMMVRGEGDDIWYQRLWRQLTPETMEAIVEQSQRFLLPLFRFNQS
# B2: RecD subunit of E. coli RecBCD (enzyme, UniProt P04993 1-608, looked up)
# chain: MKLQKQLLEAVEHKQLRPLDVQFALTVAGDEHPAVTLAAALLSHDAGEGHVCLPLSRLENNEASHPLLATCVSEIGELQNWEECLLASQAVSRGDEPTPMILCGDRLYLNRMWCNERTVARFFNEVNHAIEVDEALLAQTLDKLFPVSDEINWQKVAAAVALTRRISVISGGPGTGKTTTVAKLLAALIQMADGERCRIRLAAPTGKAAARLTESLGKALRQLPLTDEQKKRIPEDASTLHRLLGAQPGSQRLRHHAGNPLHLDVLVVDEASMIDLPMMSRLIDALPDHARVIFLGDRDQLASVEAGAVLGDICAYANAGFTAERARQLSRLTGTHVPAGTGTEAASLRDSLCLLQKSYRFGSDSGIGQLAAAINRGDKTAVKTVFQQDFTDIEKRLLQSGEDYIAMLEEALAGYGRYLDLLQARAEPDLIIQAFNEYQLLCALREGPFGVAGLNERIEQFMQQKRKIHRHPHSRWYEGRPVMIARNDSALGLFNGDIGIALDRGQGTRVWFAMPDGNIKSVQPSRLPEHETTWAMTVHKSQGSEFDHAALILPSQRTPVVTRELVYTAVTRARRRLSLYADERILSAAIATRTERRSGLAALFSSRE
# Assays:
# [1] = biological target: T1, RecB subunit of E. coli RecBCD (134 kDa); test: AUC
# [2] = biological target: B1; test: AUC
Binder,binding result [1],binding result [2]
B1,binds,
B2,binds,binds

# Source: paper PMC8996488 (Journal of molecular biology, 2021)
